Results: patent US20160031942A1 (LONDON HEALTH SCIENCES CENTRE RESEARCH, published 2016)
Each block holds one binder with its values, some of them ahead of it. Square brackets hold non-standard residues; d marks the D form. Ends that are not written are not given here. * marks the point of attachment. FITC = O=C1OC2(c3ccc(O)cc3Oc3cc(O)ccc32)c2ccc(NC(=S)*)cc21; Ahx = NCCCCCC(=O)O

Experiments:
[1] = target: T1, Recombinant protein RHAMM-CT (truncated RHAMM, carboxy terminus containing the HA binding domain, amino acids … (Mus musculus (Mouse), UniProt Q00547 706-766)); test: SPR-based screening (FIG. 3B legend)
T1 construct: Expressed in E. coli BL21 from pPAL7-RHAMM as eXact-tagged protein and purified on Profinity eXact resin (fluoride elution); M.W. 7.1 kDa, pI 10.1; also called recombinant RHAMM
T1 sequence: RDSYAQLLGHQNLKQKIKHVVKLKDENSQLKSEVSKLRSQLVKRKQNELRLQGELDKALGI
Procedure: ProteON XPR36 system was used for the selection and ranking of different tubulin derived peptides against RHAMM. For immobilization of RHAMM, the ProteON GLC sensor chip surfaces were activated by amine coupling using 100 mM EDAC and 24 mM sulfo-NHS. RHAMM (30 μg/mL in sodium bicarbonate buffer, pH 9.7) was injected at a flow a rate of 30 μl/min. A buffer sample was injected on a different sensor plate for use as a reference. Ethanolamine HCl (1M, pH 8.5) was then injected to deactivate any remaining surface groups. Peptides (10 μM in PBS-T, 2% DMSO) were injected to a RHAMM functionalized surface at 50 μL/min for 3 minutes followed by a 10 minute dissociation (i.e. injection of PBS-T buffer) period. The surfaces were regenerated using two injections of 30 μL of 1M NaCl prior to the injection of the next peptide. In all experiments, reference subtraction was performed using data obtained from reference plate (No RHAMM) and RHAMM functionalized plate.
After immobilization of RHAMM on the SPR sensor chip, injection of a series of tubulin derived peptides was carried out. Association of the peptides with RHAMM proceeded for 3 minutes and the dissociation in analyte free buffer was carried out for 10 minutes. […] For each peptide injection, control sensograms (no immobilized RHAMM and buffer injection) were subtracted from the test sensograms, and the chip surface was regenerated prior to the next peptide injection in order to remove any remaining bound peptides.

[2] = target: T2, Recombinant protein RHAMM-CT (truncated RHAMM, carboxy terminus containing the HA binding domain, amino acids … (UniProt Q00547 706-766)); test: SPR
T2 chain: T1 sequence

[3] = target: T1, Recombinant protein RHAMM-CT (truncated …); test: ELISA, fluorescein-labelled peptide on immobilised RHAMM
Procedure: ELISA was carried out to test the ability of FITC-labelled tubulin-derived peptides compete with HA for binding site with RHAMM. Recombinant RHAMM (100 μL, 10 μg/mL in 0.05M PBS, pH=9) was immobilized on 96-well ELISA plates (final concentration of 1 μg/well) and incubated overnight at 4° C. resulting in final amount of protein 1 μg/well. Plates were washed three times with (0.05%) PBS-Tween-20 buffer (200 μL/well), washed with blocking buffer (5% 200 μL/well, PBS-Tween-20 per well), and incubated for 1 hour at room temperature. Following three washes as described above, FITC-labeled tubulin derived peptides (final concentration of 1 μg/mL) and HA (100 μL/well, M.W. 220 kDa, 10 μg/mL in PBS, serial dilutions have been made for HA=1:1, 1:2, 1:4, 1:8, 1:16) were added to plates and incubated overnight at 4° C. Plates were washed as described above, and absorbance was measured at 485/535 nm.
A competitive ELISA was done to determine the selectivity of the peptides to the HA binding domain of RHAMM. In this assay, fluorescein-labelled peptides were used and the effectiveness of unlabelled HA to block the binding of peptides to RHAMM was evaluated. Fluorescein-labelled peptides SEQ ID NOs: 1, 3, 9, 11, 12 and 14, corresponding to peptides 1c, 3c, 9c, 11c, 12c and 14c in FIG. 2B (SEQ ID NOs: 25, 27, 29, 31, 33 and 35) were added to ELISA plates containing immobilized RHAMM, followed by the addition of varying concentration of HA, which is the natural ligand of RHAMM. A decrease in observed fluorescence is seen as HA displaces the fluorescein-labelled peptides if they compete for the same binding site.

[4] = target: T3, RHAMM (Receptor for Hyaluronic Acid Mediated Motility, CD168) expressed on human cancer cells (human, UniProt O75330 1-724); test: cell-based or functional assay
T3 sequence (looked up): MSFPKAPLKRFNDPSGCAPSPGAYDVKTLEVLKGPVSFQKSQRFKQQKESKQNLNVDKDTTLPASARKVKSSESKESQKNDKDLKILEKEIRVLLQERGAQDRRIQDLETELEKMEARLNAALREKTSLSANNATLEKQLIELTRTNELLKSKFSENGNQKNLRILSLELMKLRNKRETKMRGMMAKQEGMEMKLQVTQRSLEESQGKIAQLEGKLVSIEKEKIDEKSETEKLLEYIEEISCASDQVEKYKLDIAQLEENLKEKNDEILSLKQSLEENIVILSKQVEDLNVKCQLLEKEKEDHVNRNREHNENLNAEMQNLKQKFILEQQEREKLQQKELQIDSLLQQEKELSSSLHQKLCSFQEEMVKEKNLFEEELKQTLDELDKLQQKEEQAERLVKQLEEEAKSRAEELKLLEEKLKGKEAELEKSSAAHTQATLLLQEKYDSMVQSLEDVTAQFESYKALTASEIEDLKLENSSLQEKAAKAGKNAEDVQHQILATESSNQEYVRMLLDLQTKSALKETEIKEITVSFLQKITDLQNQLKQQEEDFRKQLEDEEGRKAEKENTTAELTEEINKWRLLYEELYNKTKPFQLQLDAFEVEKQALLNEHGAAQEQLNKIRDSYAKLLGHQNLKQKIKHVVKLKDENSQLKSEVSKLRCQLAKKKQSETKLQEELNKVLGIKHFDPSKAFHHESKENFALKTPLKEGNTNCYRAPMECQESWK

[5] = target: T1, Recombinant protein RHAMM-CT (truncated …); test: solid phase peptide binding assay (ELISA), immobilised RHAMM
[6] = target: T2, Recombinant protein RHAMM-CT (truncated …); test: SPR; RHAMM 1000 nM
[7] = target: T2, Recombinant protein RHAMM-CT (truncated …); test: SPR; RHAMM 750 nM
[8] = target: T1, Recombinant protein RHAMM-CT (truncated …); test: SPR (GWC SPRimager II), thiol-containing peptide immobilised on maleimide chip, RHAMM injected at 500, 750, 1000 nM, 1:1 Langmuir fit
Procedure: After peptide screening, GWC SPRimager®II system was used to determine binding kinetic constants. Thiol-containing peptides at 1 nM concentration in milliQ water were immobilized on a maleimide-functionalized gold-plated chip for 3 hours. Excess peptides were removed by washing with milliQ water. For binding studies, a series of concentrations (500 nM, 750 nM, and 1000 nM) of RHAMM were injected over the immobilized peptides. After a 15 min dissociation phase, the sensor chip surface was regenerated for the next peptide sample injection, via treatment with two 10 min pulse injections of regenerating buffer (2 M NaCl in HBS-EP, pH 7.4) at […]. Baseline returned to the initial value after the regeneration step, confirming the removal of all bound analytes. Data were analyzed and the corresponding dissociation constants (KD) were obtained via non-linear regression fitting to a Langmuir binding model. In all experiments, reference subtraction was performed using data obtained from reference plate (no peptide) and peptide functionalized plate.

[9] = target: T2, Recombinant protein RHAMM-CT (truncated …); test: SPR
[10] = target: T2, Recombinant protein RHAMM-CT (truncated …); test: SPR; RHAMM 500 nM
[11] = target: T2, Recombinant protein RHAMM-CT (truncated …); test: SPR; average

B1: peptide 1a (SEQ ID NO: 1), unmodified tubulin-derived peptide, alpha-Ia CTT (peptide)
peptide: VEGEGEEEGEEY-NH2
notes: Synthetic 12-mer made on Rink amide MBHA resin; also called ala-CTT
binding result [1]: binds | Kd [2]: 24 nM

B3: 8 (peptide)
chain: FVHWYVGEGMEE
Kd [2]: 176 nM

B4: SEQ ID NO 4 (tubulin-derived peptide containing the DEXEEZ motif) (peptide)
peptide: IDSYEDEDEGEE
Kd [2]: < 1000 nM

B5: peptide 11c (SEQ ID NO: 31), fluorescein-conjugated SEQ ID NO: 11 (peptide)
peptide: {FITC-Ahx}-GEFEEEAEEEVA-NH2
binding result [5]: binds

B6: peptide 14b (SEQ ID NO: 34), SEQ ID NO: 14 with N-acetyl cysteine modified N-terminus (peptide)
peptide: Ac-C[Ahx]FTEAESNMNDLV-NH2
Kd [6]: 31.9 nM | Kd [7]: 29 nM | Kd [8]: 30 nM

B9: 16 (peptide)
chain: VQQLIDEYHAAT
Kd [9]: < 1000 nM

B10: peptide 14c (SEQ ID NO: 35), fluorescein-conjugated SEQ ID NO: 14 (peptide)
peptide: {FITC-Ahx}-FTEAESNMNDLV-NH2
binding result [3]: binds | reduction in cellular fluorescence (uptake in MDA-MB-231 cells) when cells are blocked with anti-RHAMM mAb [4]: ~65%

B12: peptide 9b (SEQ ID NO: 28), SEQ ID NO: 9 with N-acetyl cysteine modified N-terminus (peptide)
peptide: Ac-C[Ahx]EEDFGEEAEEEA-NH2
Kd [7]: 33.8 nM | Kd [8]: 32 nM

B14: peptide 9a (SEQ ID NO: 9), unmodified tubulin-derived peptide, beta-Ia CTT (peptide)
peptide: EEDFGEEAEEEA-NH2
notes: Synthetic 12-mer made on Rink amide MBHA resin
binding result [1]: binds | Kd [2]: 32 nM

B16: 17 (peptide)
chain: DNPDEMDTSREI
Kd [9]: < 1000 nM

B19: peptide 12a (SEQ ID NO: 12), unmodified tubulin-derived peptide (peptide)
peptide: EAFEDEEEEIDG-NH2
notes: as for B14
Kd [6]: 201 nM | binding result [1]: binds | Kd [10]: 217 nM | Kd [11]: 211 nM | Kd [7]: 215 nM | Kd [9]: 211 nM

B22: 15 (peptide)
chain: RPDYISWGTQEQ
Kd [9]: < 1000 nM

The next lines start with the values.

binding result [3]: binds | reduction in cellular fluorescence (uptake in MDA-MB-231 cells) when cells are blocked with anti-RHAMM mAb [4]: ~85%
B2: peptide 1c (SEQ ID NO: 25), fluorescein-conjugated SEQ ID NO: 1 (peptide)
peptide: {FITC-Ahx}-VEGEGEEEGEEY-NH2

Kd [2]: 330 nM
B7: 6 (peptide)
chain: LEKDYEEVGVDS

Kd [9]: < 1000 nM
B8: 13 (peptide)
chain: SNMNDLVSEYQQ

Kd [6]: 358 nM | binding result [1]: binds | Kd [10]: 310 nM | Kd [11]: 331 nM | Kd [7]: 325 nM | Kd [2]: 331 nM
B11: peptide 3a (SEQ ID NO: 3), unmodified tubulin-derived peptide, alpha-IIIc CTT (peptide)
peptide: SVEAEAEEGEEY-NH2
notes: as for B14

binding result [5]: binds
B13: peptide 3c (SEQ ID NO: 27), fluorescein-conjugated SEQ ID NO: 3 (peptide)
peptide: {FITC-Ahx}-SVEAEAEEGEEY-NH2

Kd [8]: 24 nM
B15: peptide 1b (SEQ ID NO: 24), SEQ ID NO: 1 with N-acetyl cysteine modified N-terminus (peptide)
peptide: Ac-C[Ahx]VEGEGEEEGEEY-NH2

Kd [9]: < 1000 nM
B17: SEQ ID NO 10 (tubulin-derived peptide containing the EEXEDZ motif) (peptide)
peptide: GEFEEEEGEDEA

binding result [3]: binds | reduction in cellular fluorescence (uptake in MDA-MB-231 cells) when cells are blocked with anti-RHAMM mAb [4]: ~76%
B18: peptide 9c (SEQ ID NO: 29), fluorescein-conjugated SEQ ID NO: 9 (peptide)
peptide: {FITC}-[Ahx]EEDFGEEAEEEA-NH2
notes: also called fluorescein-conjugated HA mimetic

Kd [2]: < 1000 nM
B20: SEQ ID NO 2 (tubulin-derived peptide containing the DEXEEZ motif) (peptide)
peptide: DSADGEDEGEEY

Kd [6]: 120 nM | binding result [1]: binds | Kd [10]: 126 nM | Kd [11]: 130 nM | Kd [7]: 145 nM | Kd [9]: 130 nM
B21: peptide 11a (SEQ ID NO: 11), unmodified tubulin-derived peptide, beta-IV CTT (peptide)
peptide: GEFEEEAEEEVA-NH2
notes: as for B14

Kd [2]: 180 nM
B23: 7 (peptide)
chain: GEFSEAREDMAA

Kd [2]: < 1000 nM
B24: 5 (peptide)
chain: DSFEEENEGEEF
